For 34 variants, abundance fitness results are on record in the Human Domainome abundance scans (Beltran et al. 2025).

± gives the uncertainty stated by the source.

Sequences and labels used below:
B1: Apoptosis-associated speck-like protein containing a CARD, residues 114 to 194; numbered along this chain, Q9ULZ3 (parent)
chain: FIDQHRAALIARVTNVEWLLDALYGKVLTDEQYQAVRAEPTNPSKMRKLFSFTPAWNWTCKDLLLQALRESQSYLVEDLER

The data set covers variants of B1. Nature of the data set: abundance fitness (aPCA) (normalised: wild type 0, dead -1); higher = more abundant; growth selection in yeast, the domain comes from the species named. Particulars: Homo sapiens.
On to FIDQHRAALIARVTNVCWLLDALYGKVLTDEQYQAVRAEPTNPSKMRKLFSFTPAWNWTCKDLLLQALRESQSYLVEDLER [E17C], for which the abundance fitness was -0.867 ± 0.21.

In the case of FIDQHRAALIARVTNVPWLLDALYGKVLTDEQYQAVRAEPTNPSKMRKLFSFTPAWNWTCKDLLLQALRESQSYLVEDLER [E17P], the abundance fitness is -0.705 ± 0.084.

For FIDQHRAALIARVTNVLWLLDALYGKVLTDEQYQAVRAEPTNPSKMRKLFSFTPAWNWTCKDLLLQALRESQSYLVEDLER [E17L], the abundance fitness was -0.859 ± 0.12.

As to FIDQHRAALIARVTNVTWLLDALYGKVLTDEQYQAVRAEPTNPSKMRKLFSFTPAWNWTCKDLLLQALRESQSYLVEDLER [E17T], the abundance fitness is -0.267 ± 0.066.

With FIDQHRAALIARVTNVRWLLDALYGKVLTDEQYQAVRAEPTNPSKMRKLFSFTPAWNWTCKDLLLQALRESQSYLVEDLER [E17R], the abundance fitness is -0.642 ± 0.07.

As for FIDQHRAALIARVTNVYWLLDALYGKVLTDEQYQAVRAEPTNPSKMRKLFSFTPAWNWTCKDLLLQALRESQSYLVEDLER [E17Y], the abundance fitness is -0.61 ± 0.17.

For FIDQHRAALIARVTNVFWLLDALYGKVLTDEQYQAVRAEPTNPSKMRKLFSFTPAWNWTCKDLLLQALRESQSYLVEDLER [E17F], the abundance fitness is -0.97 ± 0.5.

In the case of FIDQHRAALIARVTNVVWLLDALYGKVLTDEQYQAVRAEPTNPSKMRKLFSFTPAWNWTCKDLLLQALRESQSYLVEDLER [E17V], the abundance fitness is -0.985 ± 0.12.

Regarding FIDQHRAALIARVTNVQWLLDALYGKVLTDEQYQAVRAEPTNPSKMRKLFSFTPAWNWTCKDLLLQALRESQSYLVEDLER [E17Q], the abundance fitness is -0.083 ± 0.076.

In the case of FIDQHRAALIARVTNVSWLLDALYGKVLTDEQYQAVRAEPTNPSKMRKLFSFTPAWNWTCKDLLLQALRESQSYLVEDLER [E17S], the abundance fitness was -0.536 ± 0.06.

For the variant FIDQHRAALIARVTNVHWLLDALYGKVLTDEQYQAVRAEPTNPSKMRKLFSFTPAWNWTCKDLLLQALRESQSYLVEDLER [E17H], the abundance fitness is -0.695 ± 0.17.

Turning to FIDQHRAALIARVTNVDWLLDALYGKVLTDEQYQAVRAEPTNPSKMRKLFSFTPAWNWTCKDLLLQALRESQSYLVEDLER [E17D], the abundance fitness stood at 0.019 ± 0.1.

For FIDQHRAALIARVTNVGWLLDALYGKVLTDEQYQAVRAEPTNPSKMRKLFSFTPAWNWTCKDLLLQALRESQSYLVEDLER [E17G], the abundance fitness was -0.357 ± 0.044.

FIDQHRAALIARVTNVMWLLDALYGKVLTDEQYQAVRAEPTNPSKMRKLFSFTPAWNWTCKDLLLQALRESQSYLVEDLER [E17M]: the abundance fitness is -0.49 ± 0.061.

For FIDQHRAALIARVTNVWWLLDALYGKVLTDEQYQAVRAEPTNPSKMRKLFSFTPAWNWTCKDLLLQALRESQSYLVEDLER [E17W], the abundance fitness is -0.642 ± 0.12.

Turning to FIDQHRAALIARVTNVNWLLDALYGKVLTDEQYQAVRAEPTNPSKMRKLFSFTPAWNWTCKDLLLQALRESQSYLVEDLER [E17N], the abundance fitness is -0.286 ± 0.17.

As for FIDQHRAALIARVTNVEDLLDALYGKVLTDEQYQAVRAEPTNPSKMRKLFSFTPAWNWTCKDLLLQALRESQSYLVEDLER [W18D], the abundance fitness came out at 0.18 ± 0.097.

On to FIDQHRAALIARVTNVECLLDALYGKVLTDEQYQAVRAEPTNPSKMRKLFSFTPAWNWTCKDLLLQALRESQSYLVEDLER [W18C], for which the abundance fitness worked out at 0.029 ± 0.069.

Take FIDQHRAALIARVTNVEALLDALYGKVLTDEQYQAVRAEPTNPSKMRKLFSFTPAWNWTCKDLLLQALRESQSYLVEDLER [W18A]: the abundance fitness was 0.248 ± 0.046.

Turning to FIDQHRAALIARVTNVEELLDALYGKVLTDEQYQAVRAEPTNPSKMRKLFSFTPAWNWTCKDLLLQALRESQSYLVEDLER [W18E], the abundance fitness stood at 0.103 ± 0.083.

For FIDQHRAALIARVTNVEILLDALYGKVLTDEQYQAVRAEPTNPSKMRKLFSFTPAWNWTCKDLLLQALRESQSYLVEDLER [W18I], the abundance fitness stood at 0.061 ± 0.12.

For the variant FIDQHRAALIARVTNVEFLLDALYGKVLTDEQYQAVRAEPTNPSKMRKLFSFTPAWNWTCKDLLLQALRESQSYLVEDLER [W18F], the abundance fitness was determined as 0.213 ± 0.091.

Turning to FIDQHRAALIARVTNVELLLDALYGKVLTDEQYQAVRAEPTNPSKMRKLFSFTPAWNWTCKDLLLQALRESQSYLVEDLER [W18L], the abundance fitness worked out at 0.043 ± 0.048.

For the variant FIDQHRAALIARVTNVEKLLDALYGKVLTDEQYQAVRAEPTNPSKMRKLFSFTPAWNWTCKDLLLQALRESQSYLVEDLER [W18K], the abundance fitness came to 0.186 ± 0.089.

Take FIDQHRAALIARVTNVEGLLDALYGKVLTDEQYQAVRAEPTNPSKMRKLFSFTPAWNWTCKDLLLQALRESQSYLVEDLER [W18G]: the abundance fitness came to 0.169 ± 0.047.

Regarding FIDQHRAALIARVTNVEPLLDALYGKVLTDEQYQAVRAEPTNPSKMRKLFSFTPAWNWTCKDLLLQALRESQSYLVEDLER [W18P], the abundance fitness worked out at 0.174 ± 0.047.

Turning to FIDQHRAALIARVTNVEMLLDALYGKVLTDEQYQAVRAEPTNPSKMRKLFSFTPAWNWTCKDLLLQALRESQSYLVEDLER [W18M], the abundance fitness worked out at 0 ± 0.077.

As for FIDQHRAALIARVYNVEWLLDALYGKVLTDEQYQAVRAEPTNPSKMRKLFSFTPAWNWTCKDLLLQALRESQSYLVEDLER [T14Y], the abundance fitness is -0.54 ± 0.17.

FIDQHRAALIARVPNVEWLLDALYGKVLTDEQYQAVRAEPTNPSKMRKLFSFTPAWNWTCKDLLLQALRESQSYLVEDLER [T14P]: the abundance fitness was -0.815 ± 0.13.

Turning to FIDQHRAALIARVQNVEWLLDALYGKVLTDEQYQAVRAEPTNPSKMRKLFSFTPAWNWTCKDLLLQALRESQSYLVEDLER [T14Q], the abundance fitness was -0.252 ± 0.12.

Regarding FIDQHRAALIARVNNVEWLLDALYGKVLTDEQYQAVRAEPTNPSKMRKLFSFTPAWNWTCKDLLLQALRESQSYLVEDLER [T14N], the abundance fitness was -0.206 ± 0.15.

For FIDQHRAALIARVWNVEWLLDALYGKVLTDEQYQAVRAEPTNPSKMRKLFSFTPAWNWTCKDLLLQALRESQSYLVEDLER [T14W], the abundance fitness is -0.864 ± 0.16.

In the case of FIDQHRAALIARVRNVEWLLDALYGKVLTDEQYQAVRAEPTNPSKMRKLFSFTPAWNWTCKDLLLQALRESQSYLVEDLER [T14R], the abundance fitness is -0.209 ± 0.053.

With FIDQHRAALIARVSNVEWLLDALYGKVLTDEQYQAVRAEPTNPSKMRKLFSFTPAWNWTCKDLLLQALRESQSYLVEDLER [T14S], the abundance fitness is -0.045 ± 0.052.
